Results: PMC11754652

Biological target: T1, RheA (RheASal) (Streptomyces albidoflavus J1074) (UniProt O08247)
T1 sequence: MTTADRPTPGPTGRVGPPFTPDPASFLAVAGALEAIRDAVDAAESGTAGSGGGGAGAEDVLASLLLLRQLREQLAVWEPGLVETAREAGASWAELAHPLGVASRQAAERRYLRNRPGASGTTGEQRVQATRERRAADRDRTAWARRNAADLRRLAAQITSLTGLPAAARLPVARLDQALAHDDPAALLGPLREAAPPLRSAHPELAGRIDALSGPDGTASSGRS
Assay: EMSA
Conditions: 20 mM Tris-HCl pH 7.5, 1 mM DTT, 5 mM MgCl2, 0.5 mg/ml BSA, 5% glycerol, 20 uL, 30 C 25 min, 4.5% native PAGE in 45 mM Tris-HCl pH 8.0, 45 mM boric acid

GAGTGAACACCTCCAGAAGTCCAGGCAGTTGATGCCATGCGCTTCGCTTGGCACCGTTGTAACATGTCATCCGAACGATGACAAGCGAGTCGTCGTCCATCGGATGACGACCCGGAGTGATATC (double strand) [RS01 probe (one rheO)]
binding: binds
